Experiment in all cases: EMSA
Data set [1] addresses Mfd D7AAA (Escherichia coli, UniProt P30958 1-1148, E1045A;D1048A;R1049A).
Data set [2] concerns the target Mfd WA550 RA953 (Escherichia coli, UniProt P30958 1-1148, W550A;R953A).
Data set [3] addresses Mfd RA953 (Escherichia coli, UniProt P30958 1-1148, R953A).
Data set [4] concerns the target Mfd WA550 (Escherichia coli, UniProt P30958 1-1148, W550A).

B1: 50 bp oligonucleotide duplex (dsDNA)
DNA 1: CTCATACGACGCTGTCGATCCAGTCACTGTCATGCGCTATCCGATCCTAG
DNA 2: CTAGGATCGGATAGCGCATGACAGTGACTGGATCGACAGCGTCGTATGAG
For B1, the binding result in data set [1] is on record as “binds”; in data set [2], “no binding”; in data set [3] it was “binds”; in data set [4], “binds”.

These data come from publication PMC3488230.
